Results published in publication PMC6938703 (Science Advances, 2020).
Changes are numbered by the printed parent chain. Names and notes keep the numbering of the source.

B1: Selenomethionine-substituted dARC1 CA (residues S39 to N205) (domain or fragment, D. melanogaster)
chain: SRGKGNFSACTHSFGGTRDHDVVEEFIGNIETYKDVEGISDENALKGISLLFYGMASTWWQGVRKEATTWKEAIALIREHFSPTKPAYQIYMEFFQNKQDDHDPIDTFVIQKRALLAQLPSGRHDEETELDLLFGLLNIKYRKHISRHSVHTFKDLLEQGRIIEHNNPLE
modifications: selenomethionine in place of methionine
B2: dARC1 CA F133A (domain or fragment, D. melanogaster)
chain: B1 chain with F95A

Experiments:
crystal structure = target: the molecule itself; test: crystal structure
SEC-MALS = target: the molecule itself; test: SEC-MALS

Protein	binding result (crystal structure)	binding result (SEC-MALS)
B1	binds	
B2		binds
